What all share (assay): two-hybrid
The target in experiment [1] is BD-SUD2_(core) (SUD2-N+M, K412 to S675 of SARS-CoV-2 Nsp3, fused to the DNA binding domain) (SARS-CoV-2).
In experiment [2] the target is SUD2-M (I549 to S675 of SARS-CoV-2 Nsp3), two-hybrid bait (SARS-CoV-2).
In experiment [3] the target is SUD2-N (K412 to E548 of SARS-CoV-2 Nsp3), two-hybrid bait (SARS-CoV-2).

Consider “AD-Nsp5 (Nsp5 of SARS-CoV-2 fused to the activation domain) (from UniProt P0DTD1 3264-3569)”, for which the fold LacZ reporter induction against full-length SUD2 in experiment [1] turned out to be 2.1 fold.
Turning to “AD-Nsp5 (Nsp5 of SARS-CoV-2 fused to the activation domain) (from UniProt P0DTD1 3264-3569) (enzyme)”, the LacZ reporter activity compared with SUD2-N+M in experiment [2] was found to be 86%; in experiment [3] it was 47%.

The values are drawn from PMC10127692.
